This note sets out measurements from article PMC6615629, “Hsp70-nucleotide exchange factor (NEF) Fes1 has non-NEF roles in degradation of gluconeogenic enzymes and cell wall integrity” (PLoS Genetics, 2019).

B4: His6-Fbp1 (enzyme, yeast (S. cerevisiae), UniProt P09201 1-348, looked up)
chain: MPTLVNGPRRDSTEGFDTDIITLPRFIIEHQKQFKNATGDFTLVLNALQFAFKFVSHTIRRAELVNLVGLAGASNFTGDQQKKLDVLGDEIFINAMRASGIIKVLVSEEQEDLIVFPTNTGSYAVCCDPIDGSSNLDAGVSVGTIASIFRLLPDSSGTINDVLRCGKEMVAACYAMYGSSTHLVLTLGDGVDGFTLDTNLGEFILTHPNLRIPPQKAIYSINEGNTLYWNETIRTFIEKVKQPQADNNNKPFSARYVGSMVADVHRTFLYGGLFAYPCDKKSPNGKLRLLYEAFPMAFLMEQAGGKAVNDRGERILDLVPSHIHDKSSIWLGSSGEIDKFLDHIGKSQ
notes: Fbp1, yeast gluconeogenic enzyme; the initiator methionine is present in the purified protein and is counted as residue 1; also called wild type His6-Fbp1; not shown: His6, N-terminal, kept

What all share (test): pull-down; His6-Fbp1 (wild type or mutant) pulled down on Talon metal affinity resin; reactions with two or all three proteins; 6 μg each of His6-Fbp1 (1.6 μM), Hsp70 (0.9 μM) and GST-Fes1 (1.09 μM), with or without ATP, ADP or AMP (2.5 mM); 50 mM Tris-HCl pH 7.5, 150 mM NaCl, 2% glycerol, 5 mM MgCl2; 30 min at 4°C; washed with 5 mM imidazole, eluted with 250 mM imidazole; stained SDS-PAGE gels, bands quantified …
Common to all, as to conditions: both partners purified

For the assay “His6-Fbp1”, the target named is B4.
The next assay has as its target T1, Ssa1 (yeast (S. cerevisiae), UniProt P10591 1-642).
T1 construct: Ssa1, yeast cytosolic Hsp70; non-tagged; also called Hsp70; source: E. coli Rosetta 2(DE3), purified as described [51]

A further assay concerns the target T2, Ssa2 (yeast (S. cerevisiae), UniProt P10592 1-639).
T2 construct: Ssa2, yeast cytosolic Hsp70; non-tagged; also called Hsp70; source: E. coli Rosetta 2(DE3), purified as described [51]

T1 sequence (P10591 whole entry): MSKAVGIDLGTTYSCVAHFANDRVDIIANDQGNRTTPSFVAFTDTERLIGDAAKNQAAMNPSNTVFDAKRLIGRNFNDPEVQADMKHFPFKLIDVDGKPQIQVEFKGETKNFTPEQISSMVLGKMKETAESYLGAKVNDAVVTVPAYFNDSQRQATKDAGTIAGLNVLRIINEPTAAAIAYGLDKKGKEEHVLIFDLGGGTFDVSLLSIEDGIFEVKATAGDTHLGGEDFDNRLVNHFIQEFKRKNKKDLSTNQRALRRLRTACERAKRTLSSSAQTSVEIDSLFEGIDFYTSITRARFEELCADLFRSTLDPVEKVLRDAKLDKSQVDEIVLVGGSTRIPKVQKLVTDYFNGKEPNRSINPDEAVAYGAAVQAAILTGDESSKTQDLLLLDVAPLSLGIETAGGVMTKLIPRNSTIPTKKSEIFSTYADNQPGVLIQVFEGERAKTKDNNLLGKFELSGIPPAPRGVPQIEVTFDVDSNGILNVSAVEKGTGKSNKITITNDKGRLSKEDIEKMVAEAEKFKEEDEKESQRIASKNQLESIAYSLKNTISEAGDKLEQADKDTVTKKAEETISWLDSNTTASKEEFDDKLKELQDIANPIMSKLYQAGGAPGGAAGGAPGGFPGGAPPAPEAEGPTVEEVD
T2 sequence (P10592 whole entry): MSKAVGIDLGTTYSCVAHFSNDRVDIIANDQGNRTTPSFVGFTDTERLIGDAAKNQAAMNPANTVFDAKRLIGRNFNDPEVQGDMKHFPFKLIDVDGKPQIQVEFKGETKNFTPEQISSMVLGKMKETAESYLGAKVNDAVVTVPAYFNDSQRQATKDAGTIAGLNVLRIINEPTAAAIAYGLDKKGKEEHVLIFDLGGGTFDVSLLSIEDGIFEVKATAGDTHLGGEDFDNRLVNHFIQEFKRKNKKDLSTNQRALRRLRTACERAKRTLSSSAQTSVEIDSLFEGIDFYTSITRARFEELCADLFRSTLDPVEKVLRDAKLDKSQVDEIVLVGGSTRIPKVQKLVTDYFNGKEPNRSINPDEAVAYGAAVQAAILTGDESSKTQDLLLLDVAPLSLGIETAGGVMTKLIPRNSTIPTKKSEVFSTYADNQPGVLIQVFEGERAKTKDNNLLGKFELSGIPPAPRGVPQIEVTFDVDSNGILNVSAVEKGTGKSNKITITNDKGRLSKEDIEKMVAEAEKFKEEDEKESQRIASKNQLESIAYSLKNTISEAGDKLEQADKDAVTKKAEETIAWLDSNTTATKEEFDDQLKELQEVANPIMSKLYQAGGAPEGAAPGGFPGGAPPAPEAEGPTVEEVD

B1: GST-Fes1^A79R,R195A (natural protein, yeast (S. cerevisiae), UniProt P38260 1-290, looked up)
chain: MEKLLQWSIANSQGDKEAMARAGQPDPKLLQQLFGGGGPDDPTLMKESMAVIMNPEVDLETKLVAFDNFEMLIENLDNRNNIENLKLWEPLLDVLVQTKDEELRAAALSIIGTAVQNNLDSQNNFMKYDNGLRSLIEIASDKTKPLDVRTKAFYALSNLIRNHKDISEKFFKLNGLDCIAPVLSDNTAKPKLKMAAIALLTAYLSSVKIDENIISVLRKDGVIESTIECLSDESNLNIIDRVLSFLSHLISSGIKFNEQELHKLNEGYKHIEPLKDRLNEDDYLAVKYVL
notes: Fes1, yeast Hsp70 nucleotide exchange factor, double mutant A79R,R195A; also called Fes1RA; RA; source: E. coli expression, purified; not shown: GST, N-terminal, kept
B1: in the assay with His6-Fbp1, the “ratio of amounts Fes1^A79R,R195A/Ssa1 pulled down by Fbp1, no nucleotide” value is 1.7; the “ratio of amounts Fes1^A79R,R195A/Ssa1 pulled down by Fbp1, with ADP” value was 5; the “ratio of amounts Fes1^A79R,R195A/Ssa1 pulled down by Fbp1, with AMP” value is 3.3; the “ratio of amounts Fes1^A79R,R195A/Ssa1 pulled down by Fbp1, with ATP” value came to 6.4. For the same molecule, in the assay with His6-Fbp1, the “ratio of amounts Fes1^A79R,R195A/Ssa2 pulled down by Fbp1, no nucleotide” value is 2.4; the “ratio of amounts Fes1^A79R,R195A/Ssa2 pulled down by Fbp1, with ADP” value is 4.5; the “ratio of amounts Fes1^A79R,R195A/Ssa2 pulled down by Fbp1, with AMP” value was 1.9; the “ratio of amounts Fes1^A79R,R195A/Ssa2 pulled down by Fbp1, with ATP” value was 4.3.

B2: His6-Fbp1ΔP2 (enzyme, yeast (S. cerevisiae), UniProt P09201 1-348, looked up)
chain: MTLVNGPRRDSTEGFDTDIITLPRFIIEHQKQFKNATGDFTLVLNALQFAFKFVSHTIRRAELVNLVGLAGASNFTGDQQKKLDVLGDEIFINAMRASGIIKVLVSEEQEDLIVFPTNTGSYAVCCDPIDGSSNLDAGVSVGTIASIFRLLPDSSGTINDVLRCGKEMVAACYAMYGSSTHLVLTLGDGVDGFTLDTNLGEFILTHPNLRIPPQKAIYSINEGNTLYWNETIRTFIEKVKQPQADNNNKPFSARYVGSMVADVHRTFLYGGLFAYPCDKKSPNGKLRLLYEAFPMAFLMEQAGGKAVNDRGERILDLVPSHIHDKSSIWLGSSGEIDKFLDHIGKSQ
notes: Fbp1, yeast gluconeogenic enzyme, proline 2 deleted; the initiator methionine is counted as residue 1; also called Fbp1P2Δ; source: E. coli expression, purified; not shown: His6, N-terminal, kept
Regarding B2, the binding result with Ssa1 and with Ssa2 was “binds” in each case.

B3: His6-Fbp1 P2A (enzyme, yeast (S. cerevisiae), UniProt P09201 1-348, looked up)
chain: MATLVNGPRRDSTEGFDTDIITLPRFIIEHQKQFKNATGDFTLVLNALQFAFKFVSHTIRRAELVNLVGLAGASNFTGDQQKKLDVLGDEIFINAMRASGIIKVLVSEEQEDLIVFPTNTGSYAVCCDPIDGSSNLDAGVSVGTIASIFRLLPDSSGTINDVLRCGKEMVAACYAMYGSSTHLVLTLGDGVDGFTLDTNLGEFILTHPNLRIPPQKAIYSINEGNTLYWNETIRTFIEKVKQPQADNNNKPFSARYVGSMVADVHRTFLYGGLFAYPCDKKSPNGKLRLLYEAFPMAFLMEQAGGKAVNDRGERILDLVPSHIHDKSSIWLGSSGEIDKFLDHIGKSQ
notes: Fbp1, yeast gluconeogenic enzyme, P2A; the initiator methionine is counted as residue 1; source: E. coli expression, purified; not shown: His6, N-terminal, kept
With B3, the binding result with Ssa1 and with Ssa2 was “binds” throughout.
Consider B4, for which the binding result with Ssa1 and in the assay with Ssa2 was “binds” each time.

B5: His6-Fbp1^P2A,S12A,T13A (enzyme, yeast (S. cerevisiae), UniProt P09201 1-348, looked up)
chain: MATLVNGPRRDAAEGFDTDIITLPRFIIEHQKQFKNATGDFTLVLNALQFAFKFVSHTIRRAELVNLVGLAGASNFTGDQQKKLDVLGDEIFINAMRASGIIKVLVSEEQEDLIVFPTNTGSYAVCCDPIDGSSNLDAGVSVGTIASIFRLLPDSSGTINDVLRCGKEMVAACYAMYGSSTHLVLTLGDGVDGFTLDTNLGEFILTHPNLRIPPQKAIYSINEGNTLYWNETIRTFIEKVKQPQADNNNKPFSARYVGSMVADVHRTFLYGGLFAYPCDKKSPNGKLRLLYEAFPMAFLMEQAGGKAVNDRGERILDLVPSHIHDKSSIWLGSSGEIDKFLDHIGKSQ
notes: Fbp1, yeast gluconeogenic enzyme, P2A,S12A,T13A; the initiator methionine is counted as residue 1; source: E. coli expression, purified; not shown: His6, N-terminal, kept
As to B5, the binding result in the assay with Ssa1 and with Ssa2 was “binds” in each case.
